Common to all, as to assay: AUC
For experiment [1], the target named is human nectin-3 ectodomain (D1-D3) (human) (UniProt Q9NQS3).
For experiment [2], the target named is human nectin-1 ectodomain (D1-D3) (human) (UniProt Q15223).
For experiment [3], the target named is mouse nectin-3 ectodomain (D1-D3 with part of the stalk) (mouse) (UniProt Q9JLB9).

Chain of human nectin-3 ectodomain (D1-D3) (Q9NQS3 58-359): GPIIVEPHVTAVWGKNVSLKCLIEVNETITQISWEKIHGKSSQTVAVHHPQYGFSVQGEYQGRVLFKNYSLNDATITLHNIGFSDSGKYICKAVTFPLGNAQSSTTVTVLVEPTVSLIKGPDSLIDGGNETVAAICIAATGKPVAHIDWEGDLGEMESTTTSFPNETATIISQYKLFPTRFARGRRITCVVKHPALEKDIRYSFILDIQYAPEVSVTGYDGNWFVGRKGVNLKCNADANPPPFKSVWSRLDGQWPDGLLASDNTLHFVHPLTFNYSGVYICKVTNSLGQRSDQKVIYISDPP
Chain of mouse nectin-3 ectodomain (D1-D3 with part of the stalk) (Q9JLB9 58-401): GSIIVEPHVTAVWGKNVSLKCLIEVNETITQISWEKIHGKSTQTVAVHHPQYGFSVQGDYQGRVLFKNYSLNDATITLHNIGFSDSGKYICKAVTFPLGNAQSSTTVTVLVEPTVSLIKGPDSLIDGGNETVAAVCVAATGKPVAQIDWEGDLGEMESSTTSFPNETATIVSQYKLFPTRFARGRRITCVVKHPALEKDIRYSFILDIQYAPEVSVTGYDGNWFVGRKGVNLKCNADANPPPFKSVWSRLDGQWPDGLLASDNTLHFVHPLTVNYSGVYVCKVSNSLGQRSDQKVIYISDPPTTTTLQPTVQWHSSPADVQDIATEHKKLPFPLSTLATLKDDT
Chain of human nectin-1 ectodomain (D1-D3) (human) (Q15223 31-337): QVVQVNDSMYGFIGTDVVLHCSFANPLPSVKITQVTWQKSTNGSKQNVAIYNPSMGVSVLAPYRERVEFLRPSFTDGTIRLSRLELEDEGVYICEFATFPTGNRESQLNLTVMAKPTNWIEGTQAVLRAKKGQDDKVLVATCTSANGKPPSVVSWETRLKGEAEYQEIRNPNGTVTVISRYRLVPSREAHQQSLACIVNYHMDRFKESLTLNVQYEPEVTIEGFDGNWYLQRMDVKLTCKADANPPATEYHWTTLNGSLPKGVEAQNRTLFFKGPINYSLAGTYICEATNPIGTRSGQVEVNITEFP

Turning to “human nectin-3 ectodomain (D1-D3) (from UniProt Q9NQS3 58-359) (domain or fragment)”, in experiment [1], the Kd (in general, a measure of binding affinity in units of concentration) is 228 µM. In addition, the stoichiometry N (commonly a count of units in the complex or per binding partner) was 2 in experiment [1] and 1 in experiment [2].
For “mouse nectin-3 ectodomain (D1-D3 with part of the stalk) (from UniProt Q9JLB9 58-401) (domain or fragment)”, in experiment [3], the dissociation constant (Kd) worked out at 122 µM and the stoichiometry N stood at 2.

The values above are taken from article PMC3443293.
